Data taken from US4016250A, “Method for testing for pregnancy” (Cornell Research Foundation, Inc., priority 1974, dated 1977).
Substitutions are numbered along the chain they refer to.

Key:
[1] = biological target: T1, receptor for HCG in plasma membranes from bovine corpora lutea (Bos taurus, UniProt Q28005); test: Radioreceptorassay of HCG: competition with 125I-HCG for plasma membrane receptor; type: binding; details: for cross-reaction in the radioreceptorassay of HCG: highly purified preparations, 30 minutes at 37° C
T1 construct: 100 g. of tissue from approximately 25 large corpora lutea; from tissue; host or cells: bovine corpora lutea of early pregnancy (slaughterhouse), plasma membrane fraction from zonal sucrose gradient
T1 sequence (Q28005 27-701): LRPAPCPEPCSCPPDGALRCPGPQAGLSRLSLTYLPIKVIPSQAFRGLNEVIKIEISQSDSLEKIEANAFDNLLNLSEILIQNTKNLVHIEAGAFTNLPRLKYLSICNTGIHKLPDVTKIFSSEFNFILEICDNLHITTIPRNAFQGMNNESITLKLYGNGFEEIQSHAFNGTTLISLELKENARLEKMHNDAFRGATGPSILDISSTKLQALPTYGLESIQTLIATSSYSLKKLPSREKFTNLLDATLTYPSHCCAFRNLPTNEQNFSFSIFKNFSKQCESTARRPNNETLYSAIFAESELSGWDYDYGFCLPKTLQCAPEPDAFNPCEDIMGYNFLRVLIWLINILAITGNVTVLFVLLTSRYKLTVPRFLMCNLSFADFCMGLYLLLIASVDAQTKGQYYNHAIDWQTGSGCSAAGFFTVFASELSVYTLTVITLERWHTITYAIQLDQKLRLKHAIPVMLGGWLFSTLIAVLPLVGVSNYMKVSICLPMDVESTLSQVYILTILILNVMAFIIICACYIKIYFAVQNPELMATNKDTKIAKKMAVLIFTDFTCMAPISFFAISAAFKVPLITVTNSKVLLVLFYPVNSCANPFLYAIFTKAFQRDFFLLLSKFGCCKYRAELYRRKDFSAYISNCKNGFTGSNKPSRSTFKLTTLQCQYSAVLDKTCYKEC
Method: All procedures in the preparation of plasma membranes were carried out in an ice bath or at 4° C. Fresh bovine ovaries from early pregnancy (first trimester: fetus length from crown to rump up to 22 cm.) were obtained from the slaughter house and stored in liquid nitrogen until processed. In a typical experiment, 100 g. of tissue from approximately 25 large corpora lutea were cut into small pieces with a sharp steel blade and ground in 500 ml. of 10 mM. Tris-HCl buffer of pH. 7.8 containing one mM. of MgCl2, one MM. dithiothreitol, 10,000I.U. of Trasylol (FBA Pharmaceuticals) per liter and 0.25 M. sucrose. The homogenate was filtered through two layers of cheese cloth and the larger particles were reprocessed in 500 ml. of the buffer. […] The homogenate was centifuged at 650 xg. for 20 minutes in a Sorvall refrigerated centrifuge (RC B, Rotor GSA) to remove intact cells, cell debris and nuclei. The 650 × g. supernatant was again centrifuged at 13,000 g. for 20 minutes in the same centrifuge. Supernatant was this time discarded and the pellet was resuspended in 50 to 70 ml. of the Tris-HCl buffer with the aid of the Teflon-glass homogenizer. This suspension was injected in the core of a TI-14 zonal rotor (Model Beckman Spinco L3-50) spinning at 3,000 rpm. and containing 500 ml. of a linear sucrose gradient (LKB Ultrograd 11300 pump) from 30% (w/v) to 50% (w/v) sucrose and 120 ml. of cushion of 50% (w/v) sucrose (pumping rate 20 ml./min.) An overlay of 20 ml. was injected after the sample. After two hours of centrifugation at 45,000 rpm., the centrifuge was decelerated and the rotor content displaced with 55% sucrose at 20 ml./min. […]
In Table I, the incubation was performed for 30 minutes at 37° C. in a Dunaboff water bath shaker. […] The supernates were aspirated and the pellets were counted in a Packard Autogamma counter with a 51% efficiency for I^125. The standard curves and the hormonal concentration in the plasma samples were calculated by a time sharing IBM computer using logit-log transformations.

[2] = biological target: T2, PRL receptor sites in ovarian homogenates (Bos taurus, UniProt Q28172); test: Specificity of 125I-hPRL binding: displacement by unlabeled hormones; set-up: species or system bovine
T2 construct: from tissue; host or cells: ovarian homogenate (bovine, from the preparation section)
T2 sequence (Q28172 25-581): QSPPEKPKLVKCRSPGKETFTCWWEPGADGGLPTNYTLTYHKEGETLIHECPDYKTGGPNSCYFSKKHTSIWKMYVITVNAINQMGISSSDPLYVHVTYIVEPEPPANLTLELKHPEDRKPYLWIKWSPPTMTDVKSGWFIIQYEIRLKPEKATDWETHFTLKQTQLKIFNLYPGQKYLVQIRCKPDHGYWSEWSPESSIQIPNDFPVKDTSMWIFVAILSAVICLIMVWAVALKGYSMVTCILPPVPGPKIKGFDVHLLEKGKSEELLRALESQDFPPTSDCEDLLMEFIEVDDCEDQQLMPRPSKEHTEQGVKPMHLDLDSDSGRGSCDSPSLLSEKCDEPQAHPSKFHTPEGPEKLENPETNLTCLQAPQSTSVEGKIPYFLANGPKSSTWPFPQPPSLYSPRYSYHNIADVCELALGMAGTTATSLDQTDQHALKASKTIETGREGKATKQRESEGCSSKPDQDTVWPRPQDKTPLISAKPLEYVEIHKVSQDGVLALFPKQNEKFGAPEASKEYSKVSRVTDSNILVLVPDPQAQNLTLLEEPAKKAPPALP
Method: A reaction mixture containing 100 ul of incubation buffer containing 10 IU Trasylol (FBA Pharmaceuticals, New York, New York), 50 ul of receptor preparation equivalent to 1-300 ug of protein and 100 ul of ^125 I-hPRL (SA; 50-70 uCi/ug) were incubated at 37° C. for 2 hours in the absence and in the presence of 1 ug of unlabeled bovine PRL. At the end of incubation, 1 ml of ice cold buffer was added to all tubes and tubes were centrifuged at 5,000 rpm for 20 minutes. The supernatants were aspirated. The pellets containing receptor bound hormones were counted in an Automamma counter with a 51% efficiency for ^125 I (Packard Instrument Company, Downers Grove, Illinois). Specific binding was calculated as the difference of binding in the tubes with and without unlabeled PRL.

[3] = biological target: T3, PRL receptor sites in plasma membrane from bovine corpora lutea (Bos taurus, UniProt Q28172); test: Binding of 125I-hPRL to plasma membrane / ovarian homogenate (saturation, time course)
T3 construct: plasma membrane from bovine corpora lutea; from tissue; host or cells: bovine corpora lutea, plasma membranes
T3 sequence (Q28172 25-581): T2 sequence (Q28172 25-581)
Method: […] At the end of incubation, 1 ml of ice cold buffer was added to all tubes and tubes were centrifuged at 5,000 rpm for 20 minutes. The supernatants were aspirated. The pellets containing receptor bound hormones were counted in an Automamma counter with a 51% efficiency for ^125 I (Packard Instrument Company, Downers Grove, Illinois). Specific binding was calculated as the difference of binding in the tubes with and without unlabeled PRL. Specific binding of ^125 I-hPRL to plasma membrane from bovine corpora lutea was a saturable process.

B1: HPL: highly purified preparation of HPL, abbreviation not expanded in the text (protein, UniProt P0DML2 27-217, looked up)
Chorionic somatomammotropin …: VQTVPLSRLFDHAMLQAHRAHQLAIDTYQEFEETYIPKDQKYSFLHDSQTSFCFSDSIPTPSNMEETQQKSNLELLRISLLLIESWLEPVRFLRSMFANNLVYDTSDSDDYHLLKDLEEGIQTLMGRLEDGSRRTGQILKQTYSKFDTNSHNHDALLKNYGLLYCFRKDMDKVETFLRMVQCRSVEGSCGF
[1]
  cross-reaction in the radioreceptorassay of HCG: complete lack of cross-reaction

B2: human chorionic somatomammotropin (protein, UniProt P0DML2 27-217, looked up)
Chorionic somatomammotropin …: B1 Chorionic somatomammotropin …
[2]; various concentrations
  displacement of 125I-hPRL bound to receptor protein: capable of displacing

B3: prolactin (protein, UniProt P01236 29-227, looked up)
Prolactin: LPICPGGAARCQVTLRDLFDRAVVLSHYIHNLSSEMFSEFDKRYTHGRGFITKAINSCHTSSLATPEDKEQAQQMNQKDFLSLIVSILRSWNEPLYHLVTEVRGMQEAPEAILSKAVEIEEQTKRLLEGMELIVSQVHPETKENEIYPVWSGLPSLQMADEESRLSAYYNLLHCLRRDSHKIDNYLKLLKCRIIHNNNC
[1]; FIG. 2 legends: TSH, HGH, PRL are plasma from hypothyroid, acromegalic, postpartum lactation subjects
  cross-reaction in the radioreceptorassay of HCG (FIG. 2): no cross-reaction
[1]
  cross-reaction in the radioreceptorassay of HCG: complete lack of cross-reaction

B4: ^125 I-hPRL: human prolactin iodinated with 125I by chloramine-T or lactoperoxidase (protein, UniProt P01236 29-227, looked up)
Prolactin: B3 Prolactin
modifications: 125I label
notes: human prolactin iodinated with 125I by chloramine-T or lactoperoxidase
[3]; 100 ug of homogenate, absence of unlabeled PRL
  fraction of 125I-hPRL bound: 20-20%
[3]; 37° C
  time to reach binding equilibrium: 2 h
[3]; incubation
  binding: little binding

B5: bovine PRL: bovine prolactin, unlabeled (protein, UniProt P01239 31-229, looked up)
Prolactin: TPVCPNGPGNCQVSLRDLFDRAVMVSHYIHDLSSEMFNEFDKRYAQGKGFITMALNSCHTSSLPTPEDKEQAQQTHHEVLMSLILGLLRSWNDPLYHLVTEVRGMKGAPDAILSRAIEIEEENKRLLEGMEMIFGQVIPGAKETEPYPVWSGLPSLQTKDEDARYSAFYNLLHCLRRDSSKIDTYLKLLNCRIIYNNNC
[2]
  potency in competing with 125I-hPRL: essentially of similar potency
[2]; 1 ug unlabeled hormone added
  effect on specific binding of 125I-hPRL to ovarian homogenates: inhibited

B6: ovine PRL: ovine prolactin (protein, UniProt P01240 31-229, looked up)
Prolactin: B5 Prolactin with D31N, A108V, Y165H
[2]
  potency in competing with 125I-hPRL: essentially of similar potency
